These results are taken from paper PMC4821243, “Heparin binding preference and structures in the fibroblast growth factor family parallel their evolutionary diversification” (Open Biology, 2016).

This data set deals with the molecule itself. In words: SEC-MALS; Superdex 200 HR10/300 in series with Wyatt Dawn8+ and Optilab T-rEX, 22°C; 100 µl, 100 µg protein; 150 mM NaCl with 50 mM HEPES or 50 mM Tris-Cl, pH 7.4; 0.75 ml/min.

Usually stoichiometry N stands for the number of molecules, sites or subunits per partner or assembly.

B1: Histag-FGF20 (recombinant human fibroblast growth factor 20) (natural protein)
chain: not shown
notes: Fibroblast growth factor 20, human; Made in E. coli, so not glycosylated; source: Escherichia coli, expressed and purified as described [37]
With B1, the “stoichiometry N” value turned out to be 2.
